Values of other authors as cited in publication PMC10866841.
Read-outs that look alike come from different tables or passages of the source.

Experiments:
C4d C4d (Homo sapiens) [1] = biological target: C4d C4d (Homo sapiens) (UniProt P0C0L4)
[2] = biological target: oligomeric amyloid-β (Homo sapiens) (UniProt P05067)
C4d C4d (Homo sapiens) [3] = biological target: C4d C4d (Homo sapiens) (UniProt P0C0L4); remark: listed apart in the source
[4] = biological target: oligomeric amyloid-β (Homo sapiens) (UniProt P05067); remark: listed apart in the source

LILRB2, sequence (Q8N423 22-460): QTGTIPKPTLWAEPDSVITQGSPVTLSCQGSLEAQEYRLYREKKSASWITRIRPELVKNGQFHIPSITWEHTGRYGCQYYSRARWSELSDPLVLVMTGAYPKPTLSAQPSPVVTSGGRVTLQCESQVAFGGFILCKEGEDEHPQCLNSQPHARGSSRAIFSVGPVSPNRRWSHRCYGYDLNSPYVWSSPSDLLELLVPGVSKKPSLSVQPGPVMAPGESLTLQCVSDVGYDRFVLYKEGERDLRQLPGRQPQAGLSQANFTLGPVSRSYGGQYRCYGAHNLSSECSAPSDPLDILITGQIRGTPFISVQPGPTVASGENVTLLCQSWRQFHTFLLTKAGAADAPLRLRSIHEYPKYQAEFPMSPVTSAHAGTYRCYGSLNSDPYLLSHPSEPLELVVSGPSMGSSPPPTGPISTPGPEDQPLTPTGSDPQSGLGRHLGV
oligomeric amyloid-β (Homo sapiens), sequence (P05067 672-713): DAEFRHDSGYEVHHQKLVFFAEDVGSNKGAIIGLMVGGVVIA
C4d C4d (Homo sapiens), sequence (P0C0L4 957-1336): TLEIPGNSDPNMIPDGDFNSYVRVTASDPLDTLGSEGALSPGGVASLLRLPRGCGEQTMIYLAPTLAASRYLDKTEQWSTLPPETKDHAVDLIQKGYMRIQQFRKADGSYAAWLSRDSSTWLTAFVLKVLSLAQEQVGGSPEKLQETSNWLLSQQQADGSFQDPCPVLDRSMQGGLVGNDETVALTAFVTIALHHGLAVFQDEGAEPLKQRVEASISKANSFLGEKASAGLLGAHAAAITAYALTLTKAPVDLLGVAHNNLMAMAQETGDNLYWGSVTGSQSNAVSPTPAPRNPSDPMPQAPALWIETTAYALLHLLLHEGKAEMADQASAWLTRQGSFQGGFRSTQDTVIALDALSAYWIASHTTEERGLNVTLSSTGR
PIRB, sequence (P97484 25-642): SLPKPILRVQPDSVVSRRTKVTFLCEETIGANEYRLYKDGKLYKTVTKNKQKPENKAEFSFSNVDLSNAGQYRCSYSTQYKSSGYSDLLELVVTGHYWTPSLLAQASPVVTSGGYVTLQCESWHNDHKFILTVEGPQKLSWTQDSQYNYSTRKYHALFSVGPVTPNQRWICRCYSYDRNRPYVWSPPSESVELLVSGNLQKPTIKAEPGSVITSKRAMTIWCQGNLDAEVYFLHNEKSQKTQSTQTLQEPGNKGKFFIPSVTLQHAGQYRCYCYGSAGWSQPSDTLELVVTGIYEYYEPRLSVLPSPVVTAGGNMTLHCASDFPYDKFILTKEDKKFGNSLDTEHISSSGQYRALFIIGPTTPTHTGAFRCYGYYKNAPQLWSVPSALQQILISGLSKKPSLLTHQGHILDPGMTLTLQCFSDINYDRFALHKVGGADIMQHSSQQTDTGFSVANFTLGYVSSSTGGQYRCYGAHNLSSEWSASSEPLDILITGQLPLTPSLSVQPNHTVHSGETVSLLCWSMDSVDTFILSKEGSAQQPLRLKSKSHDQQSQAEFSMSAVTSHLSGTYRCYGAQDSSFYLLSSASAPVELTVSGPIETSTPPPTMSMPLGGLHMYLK

| Substance | Kd (C4d C4d (Homo sapiens) [1]) | Kd [2] | Kd (C4d C4d (Homo sapiens) [3]) | Kd [4] |
| --- | --- | --- | --- | --- |
| LILRB2 (from UniProt Q8N423) | 630 nM | 180 nM | – | – |
| PIRB (from UniProt P97484) | – | – | 630 nM | 180 nM |
